Assay results: US20230074436A1 (DENALI THERAPEUTICS, published 2023)
No end group written: not given here. *: point of attachment. Biotin = O=C1N[C@H]2[C@H](CS[C@H]2CCCCC(=O)*)N1

Experiments:
asyn_113-127_114A [1] = biological target: T1, asyn_113-127_114A (human); assay: Ala-scan peptide ELISA, row F, run 2
T1 construct: substitution is already in the entry; also called pep3
T1 peptide: Biotin-LADMPVDPDNEAYEM
Experimental: (§1) 96-well Nunc plates were coated with 50 μL per well of 1 μg/mL streptavidin (from Jackson Immuno Research Laboratory) in PBS at 4° C. overnight. The plates were washed three times with PBST, and blocked with PBS containing 3% BSA at room temperature for 1 hour. The N-terminal biotinylated peptides were dissolved in Milli Q water to a concentration of 2 mg/mL, then further diluted to a concentration of 2 μg/mL with PBS. 50 μl of the diluted peptide was applied to the streptavidin-coated plates and incubated at 4° C. overnight. 2 μg/mL of biotinylated human alpha-synuclein was used as the positive control. The plates were washed three times with PBST before use. Purified antibody was diluted by serial dilution methods, from 20 μg/mL to 1 ng/mL, and 50 μL of the antibody solution was added to the peptide-coated wells. The plates were incubated for 1 hour at room temperature, then washed three times with PBST. Secondary detection antibody (goat anti-rat HRP (obtained from Southern Biotech)) was added with 1:5,000 dilutions and incubated for 1 hour at room temperature, then washed three times with PBST. Plates were developed with 50 μL/well of TMB substrate (Thermo Fisher) and quenched with 50 μL/well of 1 N sulfuric acid. The signal was quantified on a BioTek® plate reader at A450. A parallel repeat was performed for each peptide in a separate plate.

asyn_113-127_121A [2] = biological target: T2, asyn_113-127_121A (human); assay: Ala-scan peptide ELISA, row D, run 1
T2 construct: substitution is already in the entry; also called pep10
T2 peptide: Biotin-LEDMPVDPANEAYEM
Experimental: as §1

asyn_113-127_114A [3] = biological target: T1, asyn_113-127_114A; assay: Ala-scan peptide ELISA, row D, run 1
Experimental: as §1

asyn_113-127_120A [4] = biological target: T3, asyn_113-127_120A (human); assay: Ala-scan peptide ELISA, row D, run 1
T3 construct: substitution is already in the entry; also called pep9
T3 peptide: Biotin-LEDMPVDADNEAYEM
Experimental: as §1

asyn_113-127_123A [5] = biological target: T4, asyn_113-127_123A (human); assay: Ala-scan peptide ELISA, row D, run 1
T4 construct: substitution is already in the entry; also called pep12
T4 peptide: Biotin-LEDMPVDPDNAAYEM
Experimental: as §1

asyn_113-127_116A [6] = biological target: T5, asyn_113-127_116A (human); assay: Ala-scan peptide ELISA, row D, run 1
T5 construct: substitution is already in the entry; also called pep5
T5 peptide: Biotin-LEDAPVDPDNEAYEM
Experimental: as §1

asyn_113-127_124P [7] = biological target: T6, asyn_113-127_124P (human); assay: Ala-scan peptide ELISA, row D, run 1
T6 construct: substitution is already in the entry; also called pep14
T6 peptide: Biotin-LEDMPVDPDNEPYEM
Experimental: as §1

asyn_113-127 [8] = biological target: T7, asyn_113-127 (human); assay: Ala-scan peptide ELISA, row D, run 1
T7 construct: also called pep1
T7 peptide: Biotin-LEDMPVDPDNEAYEM
Experimental: as §1

asyn_113-127_127A [9] = biological target: T8, asyn_113-127_127A (human); assay: Ala-scan peptide ELISA, row D, run 1
T8 construct: substitution is already in the entry; also called pep17
T8 peptide: Biotin-LEDMPVDPDNEAYEA
Experimental: as §1

asyn_113-127_126A [10] = biological target: T9, asyn_113-127_126A (human); assay: Ala-scan peptide ELISA, row D, run 1
T9 construct: substitution is already in the entry; also called pep16
T9 peptide: Biotin-LEDMPVDPDNEAYAM
Experimental: as §1

asyn_113-127_115A [11] = biological target: T10, asyn_113-127_115A (human); assay: Ala-scan peptide ELISA, row D, run 1
T10 construct: substitution is already in the entry; also called pep4
T10 peptide: Biotin-LEAMPVDPDNEAYEM
Experimental: as §1

asyn_113-127_118A [12] = biological target: T11, asyn_113-127_118A (human); assay: Ala-scan peptide ELISA, row D, run 1
T11 construct: substitution is already in the entry; also called pep7
T11 peptide: Biotin-LEDMPADPDNEAYEM
Experimental: as §1

asyn_113-127_122A [13] = biological target: T12, asyn_113-127_122A (human); assay: Ala-scan peptide ELISA, row D, run 1
T12 construct: substitution is already in the entry; also called pep11
T12 peptide: Biotin-LEDMPVDPDAEAYEM
Experimental: as §1

[14] = biological target: T13, biotinylated human alpha-synuclein (human, UniProt P37840 1-140); assay: Ala-scan peptide ELISA, row D, run 1
Experimental: as §1

asyn_113-127_125A [15] = biological target: T14, asyn_113-127_125A (human); assay: Ala-scan peptide ELISA, row D, run 1
T14 construct: substitution is already in the entry; also called pep15
T14 peptide: Biotin-LEDMPVDPDNEAAEM
Experimental: as §1

asyn_113-127_117A [16] = biological target: T15, asyn_113-127_117A (human); assay: Ala-scan peptide ELISA, row D, run 1
T15 construct: substitution is already in the entry; also called pep6
T15 peptide: Biotin-LEDMAVDPDNEAYEM
Experimental: as §1

asyn_113-127_113A [17] = biological target: T16, asyn_113-127_113A (human); assay: Ala-scan peptide ELISA, row D, run 1
T16 construct: substitution is already in the entry; also called pep2
T16 peptide: Biotin-AEDMPVDPDNEAYEM
Experimental: as §1

asyn_113-127_119A [18] = biological target: T17, asyn_113-127_119A (human); assay: Ala-scan peptide ELISA, row D, run 1
T17 construct: substitution is already in the entry; also called pep8
T17 peptide: Biotin-LEDMPVAPDNEAYEM
Experimental: as §1

asyn_113-127_124G = biological target: T18, asyn_113-127_124G (human); assay: Ala-scan peptide ELISA, row D, run 1
T18 construct: substitution is already in the entry; also called pep13
T18 peptide: Biotin-LEDMPVDPDNEGYEM
Experimental: as §1

asyn_113-127_121A [19] = biological target: T2, asyn_113-127_121A; assay: Ala-scan peptide ELISA, row C, run 1; also: test concentration or dose not given here
asyn_113-127_114A [20] = biological target: T1, asyn_113-127_114A; assay: Ala-scan peptide ELISA, row C, run 1; also: test concentration or dose not given here
asyn_113-127_120A [21] = biological target: T3, asyn_113-127_120A; assay: Ala-scan peptide ELISA, row C, run 1; also: test concentration or dose not given here
asyn_113-127_123A [22] = biological target: T4, asyn_113-127_123A; assay: Ala-scan peptide ELISA, row C, run 1; also: test concentration or dose not given here
asyn_113-127_116A [23] = biological target: T5, asyn_113-127_116A; assay: Ala-scan peptide ELISA, row C, run 1; also: test concentration or dose not given here
asyn_113-127_124P [24] = biological target: T6, asyn_113-127_124P; assay: Ala-scan peptide ELISA, row C, run 1; also: test concentration or dose not given here
asyn_113-127 [25] = biological target: T7, asyn_113-127; assay: Ala-scan peptide ELISA, row C, run 1
Experimental: as §1

asyn_113-127_127A [26] = biological target: T8, asyn_113-127_127A; assay: Ala-scan peptide ELISA, row C, run 1
Experimental: as §1

asyn_113-127_126A [27] = biological target: T9, asyn_113-127_126A; assay: Ala-scan peptide ELISA, row C, run 1
Experimental: as §1

asyn_113-127_115A [28] = biological target: T10, asyn_113-127_115A; assay: Ala-scan peptide ELISA, row C, run 1
Experimental: as §1

asyn_113-127_118A [29] = biological target: T11, asyn_113-127_118A; assay: Ala-scan peptide ELISA, row C, run 1
Experimental: as §1

asyn_113-127_122A [30] = biological target: T12, asyn_113-127_122A; assay: Ala-scan peptide ELISA, row C, run 1
Experimental: as §1

[31] = biological target: T13, biotinylated human alpha-synuclein; assay: Ala-scan peptide ELISA, row C, run 1
Experimental: as §1

asyn_113-127_125A [32] = biological target: T14, asyn_113-127_125A; assay: Ala-scan peptide ELISA, row C, run 1
Experimental: as §1

asyn_113-127_117A [33] = biological target: T15, asyn_113-127_117A; assay: Ala-scan peptide ELISA, row C, run 1
Experimental: as §1

asyn_113-127_113A [34] = biological target: T16, asyn_113-127_113A; assay: Ala-scan peptide ELISA, row C, run 1
Experimental: as §1

asyn_113-127_119A [35] = biological target: T17, asyn_113-127_119A; assay: Ala-scan peptide ELISA, row C, run 1
Experimental: as §1

B1: 20H4 (antibody, rat IgG2b, V domains shown)
VH: AVQLVESGGGLVQPKESLKISCAASGFTFSNAAMYWVRQAPGKGLELLARIRTKPNNYATYHADSVKGRFTISRDDSQSMVYLHMGNLKTEDTAMYYCTADMATGDYWGPGVMVTVSS
VL: DIQMTQSPPVLSVSVGDRVTLSCKASQNINKNLDWYQQKHGEAPKPLIYSTNNLQTGVPSRFSGSGSGTDYTLTISSLQPEDVATYYCYQYKSAWTFGGGTKLELR
notes: also called clone 20H4; rat 20H4
asyn_113-127_114A [1]
  A450: 0.139 OD
asyn_113-127_121A [2]
  A450: 0.358 OD
asyn_113-127_114A [3]
  A450: 0.387 OD
asyn_113-127_120A [4]
  A450: 0.277 OD
asyn_113-127_123A [5]
  A450: 0.43 OD
asyn_113-127_116A [6]
  A450: 0.414 OD
asyn_113-127_124P [7]
  A450: 0.044 OD
asyn_113-127 [8]
  A450: 0.421 OD
asyn_113-127_127A [9]
  A450: 0.357 OD
asyn_113-127_126A [10]
  A450: 0.375 OD
asyn_113-127_115A [11]
  A450: 0.332 OD
asyn_113-127_118A [12]
  A450: 0.415 OD
asyn_113-127_122A [13]
  A450: 0.051 OD
[14]
  A450: 0.491 OD
asyn_113-127_125A [15]
  A450: 0.047 OD
asyn_113-127_117A [16]
  A450: 0.431 OD
asyn_113-127_113A [17]
  A450: 0.422 OD
asyn_113-127_119A [18]
  A450: 0.051 OD
asyn_113-127_124G
  A450: 0.336 OD
asyn_113-127_121A [19]
  A450: 0.443 OD
asyn_113-127_114A [20]
  A450: 0.417 OD
asyn_113-127_120A [21]
  A450: 0.323 OD
asyn_113-127_123A [22]
  A450: 0.476 OD
asyn_113-127_116A [23]
  A450: 0.48 OD
asyn_113-127_124P [24]
  A450: 0.051 OD
asyn_113-127 [25]
  A450: 0.48 OD
asyn_113-127_127A [26]
  A450: 0.379 OD
asyn_113-127_126A [27]
  A450: 0.371 OD
asyn_113-127_115A [28]
  A450: 0.417 OD
asyn_113-127_118A [29]
  A450: 0.403 OD
asyn_113-127_122A [30]
  A450: 0.052 OD
[31]
  A450: 0.588 OD
asyn_113-127_125A [32]
  A450: 0.049 OD
asyn_113-127_117A [33]
  A450: 0.494 OD
asyn_113-127_113A [34]
  A450: 0.498 OD
asyn_113-127_119A [35]
  A450: 0.059 OD
